From US20040091908A1

Biological target: potassium channel Kv4.3 T1 domain (tetramerization domain, residues 29-143, with N-terminal Met, C-terminal Leu-Glu and six His-tag)
Assay: X-ray crystal structure of the T1 tetramer

solvent-accessible surface area buried by each subunit at its two subunit interfaces: 960 Å^2
Substance: potassium channel Kv4.3 T1 domain (tetramerization domain, residues 29-143, with N-terminal Met, C-terminal Leu-Glu and six His-tag)
